Among the data in patent publication EP4201483A1, “LPL1 DERIVED IMMUNE ENHANCING PEPTIDES” (priority 2021, dated 2023) are Invasion and F-actin levels values, retold here.

For assay [1], the system named is HaCaT cells. The assay can be described thus: S. aureus USA300 invasion / internalization by HaCaT keratinocytes. Type of assay: cell-based, human. As to conditions: Triggering invasion of USA300 by keratinocytes (HaCaT). Set-up: key: ⇑: increased invasion and F-actin level; ⇓: decreased invasion and F-actin level. The protocol: (§1) To identify Lpli motifs that interact with the target protein Hsp90α the inventors synthesized peptides of various length covering the whole Lpli protein. All the peptides (> 40) were tested for their ability a) to interact with Hsp90α, and b) to trigger S. aureus internalization by keratinocyte-like HaCaT cells. Table 1: Selected Lpl1 derived peptides with their effect on USA300 invasion in HaCaT keratinocytes, interaction with Hsp90α and F-actin levels in HaCaT cells
The inventors compared the effect on host internalization of L13 and L15 with that of geldanamycin. Geldanamycin is a well-known cell permeable anti-neoplastic drug that competes with ATP for binding to Hsp90, thus inhibiting Hsp90 activity (Gorska et al., 2012). This in turn leads to inactivation, destabilization, and eventual degradation of Hsp90 client proteins, The geldanamycin analog 17AAG decreased F-actin formation upon Hsp90 inhibition (Taiyab & Rao Ch, 2011).

In assay [2] the test system is HaCaT cells. The assay can be described thus: F-actin levels in HaCaT cells. Type of assay: cell-based, human. Set-up: key: ⇑: increased invasion and F-actin level; ⇓: decreased invasion and F-actin level. The protocol: as §1

B1: LNC2: Lpl1 derived peptide, 64 aa, sequence shown as image only (peptide)
peptide: DEIVKELRSRYNISTEKSPILKMHIDGDLKGSSVGYRKLEIDFSKRENSKLSVIEFLSYKPAKK
As for B1, the Invasion entry in the assay on HaCaT cells [1] is reported as “⇑”. Besides, the F-actin levels result with HaCaT cells [2] is listed as “⇑”.

B2: TAKGHYFVTTFYRNGKLPDEKNYKIEMKNNKIILLDEVKDDKLKQKIENFKFFGQYANL KELRK (peptide, listed as Staphylococcus aureus)
chain: TAKGHYFVTTFYRNGKLPDEKNYKIEMKNNKIILLDEVKDDKLKQKIENFKFFGQYANLKELRK
notes: 64 aa domain of S.aureus Lpli protein
Take B2: the Invasion entry in the assay on HaCaT cells [1] was “⇑”. The F-actin levels result in the assay on HaCaT cells [2] is on record as “⇑”.
